From article PMC6717526 (Cellular signalling, 2019)

Target: bovine arrestin-3^1−393 (truncated arrestin-3, residues 1–393), purified (bovine, UniProt P32120 1-393)
Experiment: MST

Sequence of bovine arrestin-3^1−393 (truncated arrestin-3, residues 1–393), purified (P32120 1-393): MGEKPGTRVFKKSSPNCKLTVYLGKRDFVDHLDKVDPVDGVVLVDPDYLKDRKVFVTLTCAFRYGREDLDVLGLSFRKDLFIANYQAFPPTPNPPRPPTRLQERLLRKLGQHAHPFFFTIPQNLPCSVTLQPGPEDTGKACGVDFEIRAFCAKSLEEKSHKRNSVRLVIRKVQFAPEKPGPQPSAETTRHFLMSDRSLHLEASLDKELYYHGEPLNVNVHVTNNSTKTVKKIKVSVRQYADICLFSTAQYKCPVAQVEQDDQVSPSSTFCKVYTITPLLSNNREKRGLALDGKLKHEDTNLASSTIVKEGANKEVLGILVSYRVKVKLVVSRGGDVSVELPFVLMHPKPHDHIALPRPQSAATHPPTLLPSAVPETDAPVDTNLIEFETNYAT

- Kd: 130 ± 35 nM
B1: human His-MELK^1−326,T167E (maternal embryonic leucine-zipper kinase, kinase domain and flanking ubiquitin-associated domain, residues 1–326, T167E) (domain or fragment, UniProt Q14680 1-326, looked up)
chain: MKDYDELLKYYELHETIGTGGFAKVKLACHILTGEMVAIKIMDKNTLGSDLPRIKTEIEALKNLRHQHICQLYHVLETANKIFMVLEYCPGGELFDYIISQDRLSEEETRVVFRQIVSAVAYVHSQGYAHRDLKPENLLFDEYHKLKLIDFGLCAKPKGNKDYHLQECCGSLAYAAPELIQGKSYLGSEADVWSMGILLYVLMCGFLPFDDDNVMALYKKIMRGKYDVPKWLSPSSILLLQQMLQVDPKKRISMKNLLNHPWIMQDYNYPVEWQSKNPFIHLDDDCVTELSVHHRNNRQTMEDLISLWQYDHLTATYLLLLAKKAR
modifications: RED-tris-NTA dye on the His tag (in the MST experiment only)
